Where a chain is given by its changes, count along the chain named.
T1: Homo sapiens CGRP-alpha (Calcitonin Gene Related Peptide alpha) (Homo sapiens, C-terminal -NH2 as printed in the sequence (the text says "the N-terminal phenylalanine is amidated"))
T1 construct: Synthetic 37-residue peptide from American Peptides / Bachem; Coated directly on the plate in the recombinant-antibody ELISA; also called human CGRPα; CGRPα
T1 peptide: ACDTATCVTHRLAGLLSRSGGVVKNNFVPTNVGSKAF

B1: Antibody Ab2 (antibody, human IgG1, kappa, N297A)
heavy: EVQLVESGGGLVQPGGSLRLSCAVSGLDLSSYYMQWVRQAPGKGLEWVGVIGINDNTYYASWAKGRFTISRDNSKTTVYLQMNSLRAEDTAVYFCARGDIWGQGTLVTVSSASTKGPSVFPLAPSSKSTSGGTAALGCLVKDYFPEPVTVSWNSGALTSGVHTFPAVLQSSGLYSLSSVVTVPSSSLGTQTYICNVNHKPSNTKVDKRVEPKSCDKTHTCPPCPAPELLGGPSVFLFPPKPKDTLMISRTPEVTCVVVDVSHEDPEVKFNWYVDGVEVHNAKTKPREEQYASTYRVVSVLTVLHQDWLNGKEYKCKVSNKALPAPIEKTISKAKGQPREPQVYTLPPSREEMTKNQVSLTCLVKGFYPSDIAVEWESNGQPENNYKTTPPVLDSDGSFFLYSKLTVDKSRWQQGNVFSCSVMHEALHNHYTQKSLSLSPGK
light: QVLTQSPSSLSASVGDRVTINCQASQSVYDNNYLAWYQQKPGKVPKQLIYSTSTLASGVPSRFSGSGSGTDFTLTISSLQPEDVATYYCLGSYDCSSGDCFVFGGGTKVEIKRTVAAPSVFIFPPSDEQLKSGTASVVCLLNNFYPREAKVQWKVDNALQSGNSQESVTEQDSKDSTYSLSSTLTLSKADYEKHKVYACEVTHQGLSSPVTKSFNRGEC
notes: Humanized, full length, human gamma-1 and kappa constant regions
B2: Antibody Ab3 (antibody, human IgG1, kappa, N297A)
heavy: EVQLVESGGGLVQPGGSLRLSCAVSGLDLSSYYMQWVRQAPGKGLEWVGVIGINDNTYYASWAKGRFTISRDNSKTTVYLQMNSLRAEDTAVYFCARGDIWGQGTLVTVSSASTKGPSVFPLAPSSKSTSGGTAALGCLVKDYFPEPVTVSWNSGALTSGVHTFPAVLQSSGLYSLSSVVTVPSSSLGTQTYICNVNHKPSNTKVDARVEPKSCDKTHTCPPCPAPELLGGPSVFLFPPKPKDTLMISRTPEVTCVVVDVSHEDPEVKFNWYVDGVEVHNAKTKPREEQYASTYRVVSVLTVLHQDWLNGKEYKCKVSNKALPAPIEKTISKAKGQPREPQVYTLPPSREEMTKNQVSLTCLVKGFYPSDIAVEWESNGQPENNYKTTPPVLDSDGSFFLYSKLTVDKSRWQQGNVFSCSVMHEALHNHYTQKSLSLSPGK
light: B1 light
notes: Humanized, full length; same variable regions as Ab2, heavy constant region differs (KVDARV instead of KVDKRV)
B3: Antibody Ab5 (antibody, human IgG1, kappa, N297A)
heavy: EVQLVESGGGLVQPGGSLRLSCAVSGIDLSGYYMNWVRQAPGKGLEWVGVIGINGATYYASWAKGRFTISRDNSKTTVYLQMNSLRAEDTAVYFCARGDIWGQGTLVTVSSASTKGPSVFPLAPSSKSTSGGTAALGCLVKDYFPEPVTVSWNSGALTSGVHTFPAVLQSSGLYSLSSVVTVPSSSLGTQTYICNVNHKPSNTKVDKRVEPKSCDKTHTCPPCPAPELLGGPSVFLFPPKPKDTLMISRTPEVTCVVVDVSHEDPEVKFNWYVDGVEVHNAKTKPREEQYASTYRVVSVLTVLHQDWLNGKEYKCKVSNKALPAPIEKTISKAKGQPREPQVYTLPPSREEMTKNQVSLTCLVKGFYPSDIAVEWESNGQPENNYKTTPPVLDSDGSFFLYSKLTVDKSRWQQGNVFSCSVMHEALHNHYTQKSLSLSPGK
light: B1 light with D30H, N32T, S51D, T52A, S96T, S97N
notes: as for B1
B4: Antibody Ab10 (antibody, human IgG1, kappa, N297A)
heavy: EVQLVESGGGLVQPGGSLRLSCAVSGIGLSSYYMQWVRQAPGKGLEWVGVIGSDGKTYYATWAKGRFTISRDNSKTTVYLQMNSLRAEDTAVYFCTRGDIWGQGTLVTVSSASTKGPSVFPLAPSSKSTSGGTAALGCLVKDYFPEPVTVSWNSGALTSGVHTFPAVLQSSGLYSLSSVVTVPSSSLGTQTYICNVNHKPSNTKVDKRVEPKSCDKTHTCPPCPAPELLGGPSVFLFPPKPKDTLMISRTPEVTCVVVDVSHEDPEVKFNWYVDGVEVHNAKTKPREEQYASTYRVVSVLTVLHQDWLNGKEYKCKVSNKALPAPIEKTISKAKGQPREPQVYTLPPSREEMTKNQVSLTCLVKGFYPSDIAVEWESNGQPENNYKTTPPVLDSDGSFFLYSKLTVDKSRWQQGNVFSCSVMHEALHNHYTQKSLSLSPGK
light: B1 light with S27N, D30N, S97R
notes: as for B1
B5: Antibody Ab6 (antibody, human IgG1, kappa, N297A)
heavy: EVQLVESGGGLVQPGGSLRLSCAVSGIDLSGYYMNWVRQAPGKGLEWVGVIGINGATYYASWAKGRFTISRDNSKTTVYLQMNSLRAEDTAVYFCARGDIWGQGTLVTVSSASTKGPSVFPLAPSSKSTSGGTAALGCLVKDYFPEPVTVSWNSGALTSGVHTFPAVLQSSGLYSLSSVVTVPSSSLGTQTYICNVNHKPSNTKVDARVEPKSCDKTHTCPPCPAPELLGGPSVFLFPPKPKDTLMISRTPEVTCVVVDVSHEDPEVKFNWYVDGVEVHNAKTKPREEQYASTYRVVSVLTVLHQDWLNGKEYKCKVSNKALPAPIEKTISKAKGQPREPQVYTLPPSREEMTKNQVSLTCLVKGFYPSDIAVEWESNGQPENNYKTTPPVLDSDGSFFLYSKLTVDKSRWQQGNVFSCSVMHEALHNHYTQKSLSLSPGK
light: B1 light with D30H, N32T, S51D, T52A, S96T, S97N
notes: Humanized, full length; same variable regions as Ab5, heavy constant region differs (KVDARV instead of KVDKRV)
B6: Antibody Ab8 (antibody, human IgG1, kappa, N297A, V domains shown)
VH: EVQLVESGGGLVQPGGSLRLSCAVSGIDLSNHYMQWVRQAPGKGLEWVGVVGINGRTYYASWAKGRFTISRDNSKTTVYLQMNSLRAEDTAVYFCARGDIWGQGTLVTVSS
VL: QVLTQSPSSLSASVGDRVTINCQASQSVYNYNYLAWYQQKPGKVPKQLIYSTSTLASGVPSRFSGSGSGTDFTLTISSLQPEDVATYYCLGSYDCSTGDCFVFGGGTKVEIKR
notes: as for B1
B7: Antibody Ab12 (antibody, human IgG1, kappa, N297A, V domains shown)
VH: B6 VH with L29V, S30T, H32Y, V51I, I53V, R56K, T57R
VL: B6 VL with Q23R, N30Y, Y31N, T97N
notes: as for B1
B8: Antibody Ab14 (antibody, human IgG1, kappa, N297A)
heavy: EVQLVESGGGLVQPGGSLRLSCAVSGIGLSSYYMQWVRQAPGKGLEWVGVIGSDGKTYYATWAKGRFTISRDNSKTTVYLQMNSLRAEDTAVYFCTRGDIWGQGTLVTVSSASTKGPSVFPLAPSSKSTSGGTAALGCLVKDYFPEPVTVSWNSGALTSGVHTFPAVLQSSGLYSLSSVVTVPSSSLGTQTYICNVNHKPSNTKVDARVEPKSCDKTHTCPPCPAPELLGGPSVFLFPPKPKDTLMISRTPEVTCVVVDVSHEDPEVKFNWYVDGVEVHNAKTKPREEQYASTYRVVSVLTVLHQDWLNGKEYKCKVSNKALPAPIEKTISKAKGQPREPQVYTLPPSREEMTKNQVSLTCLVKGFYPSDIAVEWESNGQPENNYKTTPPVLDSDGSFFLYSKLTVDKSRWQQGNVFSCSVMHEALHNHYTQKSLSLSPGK
light: B1 light with S27N, D30N, S97R
notes: Humanized, full length; same variable regions as Ab10, heavy constant region differs (KVDARV instead of KVDKRV)
B9: Antibody Ab1 (antibody, human IgG1, kappa, N297A, V domains shown)
VH: QSLEESGGRLVTPGTPLTLTCTVSGLDLSSYYMQWVRQAPGKGLEWIGVIGINDNTYYASWAKGRFTISRASSTTVDLKMTSLTTEDTATYFCARGDIWGPGTLVTVSS
VL: QVLTQTASPVSAAVGSTVTINCQASQSVYDNNYLAWYQQKPGQPPKQLIYSTSTLASGVSSRFKGSGSGTQFTLTISDLECADAATYYCLGSYDCSSGDCFVFGGGTEVVVKR
notes: Chimeric (rabbit variable regions, human gamma-1 and kappa constant regions), full length
B10: Antibody Ab9 (antibody, human IgG1, kappa, N297A, V domains shown)
VH: QSLEESGGRLVTPGTPLTLTCTVSGIGLSSYYMQWVRQSPGRGLEWIGVIGSDGKTYYATWAKGRFTISKTSSTTVDLRMASLTTEDTATYFCTRGDIWGPGTLVTVSS
VL: B9 VL with A7P, S27N, D30N, K64R, L79V, E80Q, A82D, S97R
notes: as for B9
B11: Antibody Ab4 (antibody, human IgG1, kappa, N297A, V domains shown)
VH: B9 VH with T22S, L26I, S30G, Q34N, D54G, N55A, R70K, A71T
VL: QVLTQTPSPVSAAVGSTVTINCQASQSVYHNTYLAWYQQKPGQPPKQLIYDASTLASGVPSRFSGSGSGTQFTLTISGVQCNDAAAYYCLGSYDCTNGDCFVFGGGTEVVVKR
notes: as for B9
B12: Antibody Ab11 (antibody, human IgG1, kappa, N297A, V domains shown)
VH: QSLEESGGRLVTPGGSLTLTCTVSGIDVTNYYMQWVRQAPGKGLEWIGVIGVNGKRYYASWAKGRFTISKTSSTTVDLKMTSLTTEDTATYFCARGDIWGPGTLVTVSS
VL: B9 VL with A12P, Q23R, D30Y, L79V, E80Q, A82D, S97N
notes: as for B9
B13: Antibody Ab7 (antibody, human IgG1, kappa, N297A, V domains shown)
VH: QEQLKESGGRLVTPGTSLTLTCTVSGIDLSNHYMQWVRQAPGKGLEWIGVVGINGRTYYASWAKGRFTISRTSSTTVDLKMTRLTTEDTATYFCARGDIWGPGTLVTVSS
VL: B9 VL with D30N, N31Y, L79V, E80Q, A82D, S97T
notes: as for B9

Biological target: T1, Homo sapiens CGRP-alpha (Calcitonin …)
Test: ELISA: CGRPα coated on plate, antibody dilution series, anti-human IgG Fc-peroxidase detection
Protocol: To characterize recombinant expressed antibodies for their ability to bind to human-CGRPα, antibody-containing solutions were tested by ELISA. All incubations were done at room temperature. Briefly, Immulon IV plagtes (Thermo Scientific) were coated with a CGRPα containing solution ([…] in PBS) for 2 hours. CGRPα-coated plates were then washed three times in wash buffer (PBS, 0.05% Tween-20). The plates were then blocked using a blocking solution (PBS, 0.5% fish skin gelatin, 0.05% Tween-20) for approximately one hour. The blocking solution was then removed and the plates were then incubated with a dilution series of the antibody being tested for approximately one hour. At the end of this incubation, the plate was washed three times with wash buffer and further incubated with a secondary antibody containing solution (Peroxidase conjugated affinipure F(ab′)2 fragment goat anti-human IgG, Fc fragment specific (Jackson Immunoresearch) for approximately 45 minutes and washed three times. At that point a substrate solution (TMB peroxidase substrate, BioFx) and incubated for 3 to 5 minutes in the dark. The reaction was stopped by addition of a HCl containing solution (0.5M) and the plate was read at 450 nm in a plate-reader.

Binder | binding result
B1 | binds
B2 | binds
B3 | binds
B4 | binds
B5 | binds
B6 | binds
B7 | binds
B8 | binds
B9 | binds
B10 | binds
B11 | binds
B12 | binds
B13 | binds
